The series has as its target CCR7 (UniProt P32248 P32248:25-378). Description: EMSA; + in gel shift assay. (In EMSA bound probe runs differently from free probe, usually more slowly.)

Chain of CCR7 (P32248 25-378, one chain of several): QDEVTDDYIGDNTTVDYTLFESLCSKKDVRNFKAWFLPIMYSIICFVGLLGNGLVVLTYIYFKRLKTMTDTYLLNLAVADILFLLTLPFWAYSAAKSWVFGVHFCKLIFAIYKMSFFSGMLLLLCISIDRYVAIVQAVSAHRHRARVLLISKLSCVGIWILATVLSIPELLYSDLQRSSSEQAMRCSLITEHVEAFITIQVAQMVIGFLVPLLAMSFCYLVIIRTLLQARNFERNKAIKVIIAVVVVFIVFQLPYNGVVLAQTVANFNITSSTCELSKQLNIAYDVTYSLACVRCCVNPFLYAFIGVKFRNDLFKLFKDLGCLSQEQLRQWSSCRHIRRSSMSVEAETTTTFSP

B1: C-6 (ssRNA)
RNA: GGGAGGACGAUGCGGUCCAUCGUCUCUUAUCGUCUCUUGUCGCGCCAGACGACUCGCCCGA
For the molecule B1, the binding result is given as “binds”.

Source of the values: patent publication US20210330692, “CCR7 APTAMERS AND USES THEREOF” (CITY OF HOPE, published 2021).
